Reference: patent US20250277029A1 (Amgen, published 2025)
Changes are numbered by the printed parent chain. In names and notes the source's numbering stands.

B1: LIBC681594-1 (IgG1 SEFL2 mAb) (antibody, V domains shown)
VH: QVQLQESGPGLVKPSQTLSLTCTVSGGSIRRGGDYWAWIRQHPGKGLEWIGHIYQTGSTNYNPRFKGRATISVNTYKNQFSLKLSSVTAADTAVYYCARNYDTLTGYSYYYYGMDVWGQGTTVTVSS
VL: DIQMTQSPSSLSASVGDRVTITCRASQSISSYLNWYQQKPGKAPKLLIYKARKLSSGVPSRFSGSGSGTDFTLTISSLQPEDFATYYCQQFGSMPLTFGGGTKVEIKR
B2: LIBC681737-1(LC:P12S) (IgG1 SEFL2 mAb) (antibody, V domains shown)
VH: B1 VH with I53V, Q55Y, G67D, L104V
VL: B1 VL with K50S, K53R, S55A, F91Y, G92Y, S93H, M94P, L96I
B3: LIBC674229-1 (IgG1 SEFL2 mAb) (antibody, V domains shown)
VH: QVQLQESGPGLVKPSQTLSLTCTVSGGSIRRGGDYWSWIRQHPGKGLEWIGHIYQTGQTKYNPSFKGRVRISVNTYKNQFSLKLSSVTAADTAVYYCARGYDVSGYSYYYYGMDVWGQGTTVTVSS
VL: DIVMTQSPLSLPVTPGEPASISCRSSQSLLHRSGYNYLDWYLQKPGQSPQLLIYQGSNRASGVPDRFSGSGSGTDFTLKISRVEAEDVGVYYCMQSLQTPRTFGQGTKVEIKR
B4: 10D10 (antibody, V domains shown)
VH: QVQLQESGPGLVKPSQTLSLTCTVSGGSIRRGGDYWSWIRQHPGKGLEWIGYIYYSGSTNYNPSLKSRATISVDTSKNQFSLKLSSVTAADTAVYYCARDYDILTGYSYYYYGMDVWGQGTTVTVSS
VL: not shown
B5: LIBC528116-1 + VK1 germline fix(es) (IgG1 SEFL2 mAb) (antibody, V domains shown)
VH: B1 VH with I53V, Q55Y, G67D, L104V
VL: DIQLTQSPSTLSASVGDRVTITCRASQSISNYLNWYQQKPGKAPKLLIYAASSLHSGVPSRFSGSGSGTDFTLTISSLQPEDFASYYCQQYQSYPLTFGQGTKVEIKR
B6: LIBC527827-1 (antibody, V domains shown)
VH: B1 VH with A37G, I53V, T56S, S58Q, N60A, R64K, K66E, G67N, N74K, Y107H
VL: B5 VL with L4M
notes: also called LIBC527827-1 + VK1 germline fix(es)
B7: LIBC527869-1 (antibody, V domains shown)
VH: B1 VH with S28N, Q55H, S58K, R64S, N74K, T105S, Y107N
VL: B5 VL
notes: also called LIBC527869-1 + VK1 germline fix(es)
B8: LIBC528148-1 (antibody, V domains shown)
VH: B4 VH with Y52H, Y55Q, S58Q, N60K, S64K, S67G, S76Y
VL: B5 VL
B9: LIBC523844-1 (antibody, V domains shown)
VH: B1 VH with A37S, I53V, Q55Y, N60K, R64S, G67D, N100D, T103I
VL: B3 VL with H31S, R32S, Y35A, L38V, M94R, S96A, L97R, Q98A, T99L
B10: LIBC523748-1 (antibody, V domains shown)
VH: B1 VH with A37S, I53V, Q55Y, N60K, R64S, K66E, N74K, N100D, T103I
VL: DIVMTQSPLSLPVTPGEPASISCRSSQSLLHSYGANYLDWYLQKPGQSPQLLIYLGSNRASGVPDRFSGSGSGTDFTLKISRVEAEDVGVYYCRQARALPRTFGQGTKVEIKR
B11: LIBC523760-1 (antibody, V domains shown)
VH: B1 VH with A37S, I53V, N60K, R64K, N100D, T103I
VL: B3 VL with H31T, R32S, Y35A, L38V, Q55L, M94R, S96A, L97V, Q98G
B12: LIBC523813-1 (antibody, V domains shown)
VH: B1 VH with A37S, I53V, Q55Y, S58Q, N60A, R64K, G67D, N74K, N100D, T103I
VL: B3 VL with H31S, R32S, Y35A, L38V, Q55L, S96A, L97R, Q98G, T99I
notes: also called LIBC523813-1 + VK2 germline fix
B13: LIBC523815-1 (antibody, V domains shown)
VH: B4 VH with Y52H, Y55Q, S58Q, N60K, S67D, D74N, S76Y
VL: B3 VL with H31T, R32S, Y35A, L38V, Q55L, M94R, S96A, L97R, Q98E, T99Q
B14: LIBC523862-1 (antibody, V domains shown)
VH: B1 VH with A37S, N60A, R64S, F65L, N100D, T103I
VL: B3 VL with R32S, S33T, Y35A, L38V, Q55L, M94R, S96A, L97I, Q98A, T99L
B15: LIBC523868-1 (antibody, V domains shown)
VH: B4 VH with Y52H, I53V, S56E, N60A, L65F, K66E, S67D, D74N, S76Y
VL: B3 VL with H31T, R32S, S33Y, Y35I, L38V, Q55L, S96A, L97R, T99I
B16: LIBC523603-1 (antibody, V domains shown)
VH: QVQLQESGPGLVKPSQTLSLTCTVSGGSIRRGGDYWAWIRQHPGKGLEWIGHVYQSGQTAYNPNFENRATISVNTYKNQFSLKLSSVTAADTAVYYCARDYDAVSGYSYYYYGMDVWGQGTTVTVSS
VL: B3 VL with H31S, R32S, S33Y, Y35N, L38V, M94R, S96A, L97V, Q98G, T99L
B17: LIBC523857-1 (antibody, V domains shown)
VH: B1 VH with A37S, S58Q, N60A, F65L, K66E, N100D, T103I
VL: B3 VL with H31S, R32S, S33T, Y35A, Q55L, M94R, S96A, L97V, Q98E, T99L
B18: LIBC523670-1 (antibody, V domains shown)
VH: B16 VH with S56T, F65L, N67S, D100N, A103V, V104L
VL: B3 VL with H31T, R32S, S33Y, Y35A, S96A, T99I
notes: also called LIBC523670-1 + VK2 germline fix
B19: LIBC523596-1 (antibody, V domains shown)
VH: B16 VH with A37S, N67D, D100E, A103V
VL: B3 VL with H31T, R32S, L38V, S96A, L97V, Q98K, T99I

target: human CB1 on stably transfected CB1 CHO cells (human, UniProt P21554 1-472); experiment: cell-based or functional assay
Sequence (P21554 whole entry): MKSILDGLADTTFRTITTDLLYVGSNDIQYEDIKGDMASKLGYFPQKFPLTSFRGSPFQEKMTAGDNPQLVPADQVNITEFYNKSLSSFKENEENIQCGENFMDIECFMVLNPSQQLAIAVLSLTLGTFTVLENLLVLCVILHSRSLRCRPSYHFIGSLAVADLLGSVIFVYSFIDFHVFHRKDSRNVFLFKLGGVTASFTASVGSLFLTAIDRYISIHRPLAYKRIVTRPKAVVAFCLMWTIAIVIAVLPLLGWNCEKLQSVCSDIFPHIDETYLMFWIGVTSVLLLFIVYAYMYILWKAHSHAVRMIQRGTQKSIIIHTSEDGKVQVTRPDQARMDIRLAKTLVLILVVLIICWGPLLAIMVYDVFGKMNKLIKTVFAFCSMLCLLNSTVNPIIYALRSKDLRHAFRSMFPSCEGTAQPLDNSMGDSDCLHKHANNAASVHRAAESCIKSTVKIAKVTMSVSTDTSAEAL

First: B1
Second: B2
The “IC50 (nM, n = 4), antagonist activity, TR-FRET cAMP assay” value (“IC50 (nM, n = 4), antagonist activity” for short) of the first is 2.3-fold higher: 1.24 nM for the first, 0.55 nM for the second.

Compared with B3, B4 is 83-fold higher in “IC50 (nM, n = 4), antagonist activity” value: 4.16 nM for the first, 347 nM for the second.

In the case of B5, the “IC50 (nM, n = 4), antagonist activity” value is reported as 2.02 nM.

target: T1, GFP-fused huCB1-SMALP (human CB1 in styrene maleic acid lipoparticles) (human, UniProt P21554 1-472); experiment: flow cytometry, yeast-displayed IgG, GFP MFI
T1 construct: Prepared as in Luna V. et al. 2018; also called huCB1-GFP-SMALP; wtCB1-SMALP; not shown: GFP fusion
T1 sequence (P21554 whole entry, the tested form may be a part): as the sequence (P21554 whole entry) above

Going from B6 to B7, the “100 nM huCB1-GFP-SMALP binding (normalized to 10D10N35Y)” value falls from 4.99 fold to 3.61 fold.

With B8 the “100 nM huCB1-GFP-SMALP binding (normalized to 10D10N35Y)” value was 3.38 fold.

target: T2, His-tagged huCB1-ND (human CB1 in nanodisc) (human); experiment: flow cytometry, yeast-displayed IgG, binding/display ratio
T2 construct: CB1 construct of Cell 167(3) (2016) 750-762 expressed in Sf9 cells; POPC:MSP1D1:CB1 480:8:1; also called CB1-nanodisc; huCB1-Nanodisc; not shown: histidine purification tag
T2 sequence (P21554 99-414): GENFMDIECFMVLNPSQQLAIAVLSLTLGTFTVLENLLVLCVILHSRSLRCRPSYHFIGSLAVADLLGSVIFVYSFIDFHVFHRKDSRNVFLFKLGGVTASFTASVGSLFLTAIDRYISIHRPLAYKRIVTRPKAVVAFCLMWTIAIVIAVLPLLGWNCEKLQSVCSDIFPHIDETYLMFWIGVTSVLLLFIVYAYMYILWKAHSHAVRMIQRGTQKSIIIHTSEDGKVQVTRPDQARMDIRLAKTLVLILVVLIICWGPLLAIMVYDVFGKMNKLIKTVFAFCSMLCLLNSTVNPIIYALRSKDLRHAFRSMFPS

Going from B6 to B7, the “0.200 nM huCB1-Nanodisc binding (relative to 10D10N35Y)” value falls from 4.31 fold to 4.15 fold.

target: T3, empty-ND (nanodisc without CB1); experiment: as above
T3 construct: its only protein is the nanodisc scaffold; also called Empty Nanodisc

Going from B6 to B7, the “50.0 nM Empty Nanodisc binding (relative to 10D10N35Y)” value falls from 1.16 fold to 0.97 fold.

target: T2, His-tagged huCB1-ND (human CB1 in …); experiment: as above; remark: another data set of the same source

First: B9
Second: B10
The “relative binding to 0.2 nM huCB1-ND (relative to 10D10N35Y)” value (from here on “relative binding to 0.2 nM huCB1-ND”) of the first is lower: 3.78 fold for the first, 4.41 fold for the second.

Compared with B11, B12 is lower in “relative binding to 0.2 nM huCB1-ND” value: 4.19 fold for the first, 3.38 fold for the second.

Going from B13 to B14, the “relative binding to 0.2 nM huCB1-ND” value falls from 6.15 fold to 5.07 fold.

Going from B15 to B16, the “relative binding to 0.2 nM huCB1-ND” value falls from 6.28 fold to 6.05 fold.

Going from B17 to B18, the “relative binding to 0.2 nM huCB1-ND” value rises from 4.05 fold to 7.46 fold.

target: T2, His-tagged huCB1-ND (human CB1 in …); experiment: flow cytometry, yeast-displayed IgG, huCB1-ND over empty-ND

First: B9
Second: B10
The “specific huCB1 binding (CB1 ND/Empty ND ratio)” value of the first is higher: 8.58 ratio for the first, 5.33 ratio for the second.

Going from B11 to B12, the “specific huCB1 binding (CB1 ND/Empty ND ratio)” value falls from 7.21 ratio to 5.79 ratio.

First: B13
Second: B14
The “specific huCB1 binding (CB1 ND/Empty ND ratio)” value of the first is higher: 14.8 ratio for the first, 13.6 ratio for the second.

First: B15
Second: B16
The “specific huCB1 binding (CB1 ND/Empty ND ratio)” value of the first is lower: 13.3 ratio for the first, 19.4 ratio for the second.

First: B17
Second: B18
The “specific huCB1 binding (CB1 ND/Empty ND ratio)” value of the first is lower: 13.9 ratio for the first, 23 ratio for the second.

target: T1, GFP-fused huCB1-SMALP (human CB1 in …); experiment: flow cytometry, yeast-displayed IgG, GFP MFI; remark: another data set of the same source

First: B9
Second: B10
The “100 nM huCB1-SMALP binding (normalized to 10D10)” value of the first is higher: 6.69 fold for the first, 6.12 fold for the second.

First: B11
Second: B12
The “100 nM huCB1-SMALP binding (normalized to 10D10)” value of the first is lower: 5.7 fold for the first, 6.32 fold for the second.

First: B13
Second: B14
The “100 nM huCB1-SMALP binding (normalized to 10D10)” value of the first is higher: 4.55 fold for the first, 3.97 fold for the second.

Compared with B15, B16 is lower in “100 nM huCB1-SMALP binding (normalized to 10D10)” value: 4.21 fold for the first, 4.05 fold for the second.

Going from B17 to B19, the “100 nM huCB1-SMALP binding (normalized to 10D10)” value falls from 4.71 fold to 4.19 fold.

B18 was tested, and the “100 nM huCB1-SMALP binding (normalized to 10D10)” value was 5.42 fold.
